Molecular target: recombinant human TfR1 (human) (UniProt P02786)
Assay: SPR (Carterra LSA), IgG captured, TfR1 injected, 25 C

recombinant human TfR1 (human), sequence (P02786 89-760 limits assumed): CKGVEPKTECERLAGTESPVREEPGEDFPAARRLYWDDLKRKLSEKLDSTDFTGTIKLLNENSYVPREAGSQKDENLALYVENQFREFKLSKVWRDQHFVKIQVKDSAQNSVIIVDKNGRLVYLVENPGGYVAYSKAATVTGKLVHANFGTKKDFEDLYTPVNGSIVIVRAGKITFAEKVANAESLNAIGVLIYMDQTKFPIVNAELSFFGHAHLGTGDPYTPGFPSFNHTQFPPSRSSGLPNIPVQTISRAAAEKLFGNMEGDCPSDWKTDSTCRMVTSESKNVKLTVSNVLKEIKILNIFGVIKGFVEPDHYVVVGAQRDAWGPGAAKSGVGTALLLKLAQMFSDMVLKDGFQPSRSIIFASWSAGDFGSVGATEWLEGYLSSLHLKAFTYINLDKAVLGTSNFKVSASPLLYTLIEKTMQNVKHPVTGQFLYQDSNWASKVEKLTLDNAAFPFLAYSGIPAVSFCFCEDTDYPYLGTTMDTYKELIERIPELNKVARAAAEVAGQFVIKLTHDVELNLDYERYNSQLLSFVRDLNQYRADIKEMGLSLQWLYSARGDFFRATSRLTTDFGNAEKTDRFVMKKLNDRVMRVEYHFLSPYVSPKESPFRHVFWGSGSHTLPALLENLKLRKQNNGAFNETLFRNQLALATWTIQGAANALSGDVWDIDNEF

Kd: 0.536 nM
kon: 774000 M⁻¹ s⁻¹
Substance: OKT9 mIgG (control) (antibody)

— patent US20230346966A1
